Laboratory results published in patent US20230040568A1 (ALBERT EINSTEIN COLLEGE OF MEDICINE, published 2023).

T1: HHLA2 expressed on cells (3T3 cell line expressing HHLA2; HHLA2/K562) (UniProt Q9UM44 23-414, limits assumed)
T1 construct: whole, on cells
T1 sequence (looked up): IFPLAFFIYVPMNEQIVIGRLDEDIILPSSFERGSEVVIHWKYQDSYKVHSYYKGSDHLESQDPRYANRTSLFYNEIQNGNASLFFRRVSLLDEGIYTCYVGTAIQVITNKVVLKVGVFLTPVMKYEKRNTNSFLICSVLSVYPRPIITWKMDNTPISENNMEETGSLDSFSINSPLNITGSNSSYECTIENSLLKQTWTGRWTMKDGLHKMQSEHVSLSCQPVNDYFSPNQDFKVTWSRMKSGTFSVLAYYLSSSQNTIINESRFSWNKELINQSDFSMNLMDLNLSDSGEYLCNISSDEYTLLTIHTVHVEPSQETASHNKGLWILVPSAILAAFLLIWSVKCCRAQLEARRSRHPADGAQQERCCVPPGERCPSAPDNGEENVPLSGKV


biological target: T1, HHLA2 expressed on cells (3T3 cell line …); assay: intercellular conjugate assay (FIG. 2B)

| binding result | Binder |
| --- | --- |
| binds | KIR3DL3 expressed on cells (3T3 cell line expressing KIR3DL3; KIR3DL3+ NK92 cells; primary KIR3DL3+ NK cells and CD8 T cells) (receptor, also called KIR3DL3-expressing 3T3 cells; KIR3DL3 WT) QDKPFLSAWPGTVVSEGQHVTLQCRSRLGFNEFSLSKEDGMPVPELYNRIFRNSFLMGPVTPAHAGTYRCCSSHPHSPTGWSAPSNPVVIMVTGVHRKPSLLAHPGPLVKSGETVILQCWSDVRFERFLLHREGITEDPLRLVGQLHDAGSQVNYSMGPMTPALAGTYRCFGSVTHLPYELSAPSDPLDIVVVGLYGKPSLSAQPGPTVQAGENVTLSCSSRSLFDIYHLSREAEAGELRLTAVLRVNGTFQANFPLGPVTHGGNYRCFGSFRALPHAWSDPSDPLPVSVTGNSRNLHVLIGTSVVIIPFAILLFFLLHRWCANKKNAVVMDQEPAGNRTVNREDSDEQDPQEVTYAQLNHCVFTQRKITRPSQRPKTPPTDTSV |

biological target: T2, KIR3DL3 protein (antigen of the affinity determination of Table 3) (human, UniProt Q8N743 26-325, limits assumed); assay: method and antigen format not stated
T2 construct: also called human KIR3DL3

| Binder | Kd [nM] |
| --- | --- |
| monoclonal 3B7 (antibody, V domains shown, Mouse hybridoma mAb; Entries include leader; Counted on the printed text) VH: QVQLQQSGPEVVRPGVSVKISCKGSGYTFSDYTMHWVKQSHAKSLEWIGVISTDNGNTNYNQKFKGKATMTVDKSSSTAYMELARLTSEDSAIYYCAREARDYGSIYALDYWGQGTSVTVS VL: DIQMTQSPASLSASVGETVTITCRASGNIHNYLAWYQQKQGKSPQLLVYNAKTLADGVPSRFSGSGSGTQYSLKINNLQPEDFGNYYCQHFWSTPWTFGGGTKLEIKR | 0.51 |
| monoclonal 8G7 (antibody, V domains shown, Mouse hybridoma mAb; also called anti-KIR3DL3 mAb clone 8G7) VH: EVMLVESGGGLVKPGGSLKLSCAASGFTFSTYAMSWVRQTPEKRLEWVATILSGGNYTYYPDSVKGRFTISRDNAKNTLNLQMSSLRSEDTAMYYCVIPYGSSPFDYWGQGTTLTVS VL: SIVMTQTPKFLLVSAGDRVTITCKASQSVSNDVAWYQQKPGQSPKLLIYYASNRYTGVPDRFTGSGYGTDFTFTISTVQAEDLAVYFCQQDYSSPWTFGGGTKLEIK | 0.11 |
| monoclonal 11G8 (antibody, V domains shown, Mouse hybridoma mAb; Entries include leader) VH: QVQLQQSGPDLVRPGVSVKISCKGSGYTFTDYAMHWVKQSHAKSLEWIGVISTDSGTTNYNQKFKGKATMTVDKSSSTAYMDLARLTSEDSAIYYCARDSSYYVRFSYWGQGTLVTVSA VL: SIVMTQTPKFLLVSVGDRVTITCKASQSVSNDVAWYQQKPGQSPKLLIYYASNRYTGVPDRFTGSGYGTDFTFTISTVQAEDLAVYFCQQDYSSPWTFGGGTKLEIKR | 0.29 |

The next lines start with the values.

| Kd [nM] | Binder |
| --- | --- |
| 8.5 | monoclonal 37A3 (antibody, V domains shown, Mouse hybridoma mAb) VH: QVQLVETGGGLVRPGNSLKLSCVTSGFTFSNYRMHWLRQPPGKRLEWIAVITVKSDNYGANFAESVKGRFTISRDDSKSSVYLQMNRLREEDTATYYCSRGSGPGFAYWGQGTLVTVS VL: DIVMTQSPSSLSVSAGEKVTMSCKSSQSLLNSGNQKNYLAWYQQKPGQPPKLLIYGASTRESGVPDRFTGSGSGTDFTLTISSVQAEDLAVYYCQNDHSYPFTFGSGTKLEIK |
| 0.16 | monoclonal 30D10 (antibody, V domains shown, Mouse hybridoma mAb; VH entry includes leader and vector-derived residues) VH: EVQLQQSGAELVRPGALVKLSCKASGFNFKDYFMHWVKQRPEQGLEWIGWIDPENGNTIYEPKFQGKASITADTSSNTAYLQLSSLTSEDTAVYYCARGGVGHWYFDVWGAGTTVTVS VL: DIVLTQSPASLAVSLGQRATISCKASQSVDYDGDSYMNWYQQKPGQPPKLLIYVASNLKSGIPARFSGSGCGTDFTLNIHPVEEEDGATYYCQQTNEDPWTFGGGTKLEIK |
| 0.17 | monoclonal 26E10 (antibody, V domains shown) VH: QAYLQQSGAELVRSGASVKMSCKASGYTFTSYNIHWVKQTPGQGLEWIGYIYPGDGVTNYNQKFKGKATLTADTSSSTAYMQISSLTSEDSAVYFCARSGNYGNYEGFAYWGQGTLVTVSA VL: DIKMTQSPSSMYASLGERVTITCKASQDTNSYLSWFQQKPGKSPKTLIYRANRLVDGVPSRFSGSGSGQDYSLTISSLEYEDMGIYYCLQYDEFPYTFGGGTKLEIK |
| 0.69 | monoclonal 12A10 (antibody, V domains shown) VH: QAYLQQSGAELVRSGASVKMSCKASGYTFTSYNMHWVKQTPGQGLEWIGYIFPGDGGTNYNQKFKGKATLTADTSSSTAYMQISSLTSEDSAVYFCARSGYYGNYEGFAYWGQGTLVTVSA VL: DIKMTQSPSSMYASLGERVTITCKASQDINSYLSWFQQKPGKSPKTLIYRANRLVDGVPSRFSGSGSGQDYSLTISSLEYEDMGIYYCLHYAEFPYTFGGGTKLEIKR |
| 0.72 | monoclonal 31C4 (antibody, V domains shown, Mouse hybridoma mAb; Entries include leader (and vector-derived residues in the VL)) VH: QAYLQQSGAELVRSGASVKMSCKASGYTFTSYNMHWVKQTPGQGLEWIGYIFPGDGGTNYNQKFKGKATLTADTSSSTAYMQISSLTSEDSAVYFCARSGNYGNYEGFAYWGQGTLVTVSA VL: DIKMTQSPSSMYASLGERVTITCKASQDINSYLSWFQQKPGKSPKTLIYRANRLVDGVPSRFSGSGSGQDYSLTISSLEYEDMGIYYCLQYDEFPYTFGGGTKLEIKR |
| 0.69 | monoclonal 14F8 (antibody, V domains shown) VH: QVQLQQSGPEVVRPGVSVKISCKGSGYTFTDYTMHWVKQSHAKSLEWIGVISTYNGNTNYNQNFEGKATMTVDKSSSTAYMELARLTSEDSAIYYCARERGGDGYYSAVDYWGQGTSVTVS VL: SIVMTQTPKFLLVSAGDRVTITCKASQSVINDVAWYQQKPGQSPKLLIYYASNRYTGVPDRFTGSGYGTDFTFTISTVQAEDLAVYFCQQDYSSPYTFGGGTKLEIKR |
| 1.13 | monoclonal 29H7 (antibody, V domains shown, Mouse hybridoma mAb; Entries include (partial) leader) VH: QVQLQQSGPEVVRPGVSVKISCKGSGYTFTDYVMHWVKQSHGKSLEWIGVISTYNGNTNYNQKFKGKATMTVDKSSSTAYMELARLTSEDSAIYYCARERGGDGYYSAMDYWGQGTSVTVSS VL: SIVMTQTPKFLLVSAGDRVTIACKASQSVINNVAWYQQKPGQSPELLIYYASNRYTGVPDRFTGSGYGTDFTFTITTVQAEDLAVYFCQQDYSSPYTFGGGTKLEIKR |
| 0.19 | monoclonal 51C3 (antibody, V domains shown, Mouse hybridoma mAb; Entries include leader) VH: EVQLQQSGPELVKPGASVKISCKTSGYTFTEYIMHWVKQSHGKSLEWIGGINPNNGGTNYNQKFKGKATLTVDTSSSIAYMELRSLTSEDSAVYYCARDDGYYVKFAYWGQGTLVTVSA VL: SIVMTQTPKFLLVSAGDRVTITCKASQSVINDVAWYQQKPGQSPKLLIYYASNRYTGVPDRFTGSGYGTDFTFTISTVQAEDLAVYFCQQDYSSPFTFGSGTKLEIKR |
| 1.51 | monoclonal 34B10 (antibody, V domains shown, Mouse hybridoma mAb; Entries include leader) VH: EVKLVESGGVLVQPGGSLRLSCATSGFTFTDYYMGWVRQPPGKALEWLGFIRNKANGYTTESSASVKGRFTISRDNSQSILYLQMNTLRAEDSATYYCARDYYSGSSLDYWGQGTTLTVSS VL: DIQMTQTTSSLSASLGDRVTISCRASQDISNYLNWYQQKPDGTVKLLIYYTSRLHSGVPSRFSGSGSGTDYSLSISNLEQEDIATYFCQQGYTLPYTFGGGTKLEIKR |

biological target: T1, HHLA2 expressed on cells (3T3 cell line …); assay: FACS, staining of 3T3 cells expressing HHLA2 (FIG. 2C)

| binding result | Binder |
| --- | --- |
| binds | KIR3DL3 D0D1D2-Ig fusion polypeptide (Fc fusion, Expressed in an S2 system; also called whole extracellular portion of KIR3DL3; whole extracellular part of KIR3DL3; not shown: human IgG1 Fc tag) QDKPFLSAWPGTVVSEGQHVTLQCRSRLGFNEFSLSKEDGMPVPELYNRIFRNSFLMGPVTPAHAGTYRCCSSHPHSPTGWSAPSNPVVIMVTGVHRKPSLLAHPGPLVKSGETVILQCWSDVRFERFLLHREGITEDPLRLVGQLHDAGSQVNYSMGPMTPALAGTYRCFGSVTHLPYELSAPSDPLDIVVVGLYGKPSLSAQPGPTVQAGENVTLSCSSRSLFDIYHLSREAEAGELRLTAVLRVNGTFQANFPLGPVTHGGNYRCFGSFRALPHAWSDPSDPLPVSVTGNSRNLHVL |
| binds | KIR3DL3 D0-Ig fusion polypeptide (Fc fusion, Expressed in an S2 system; also called KIR3DL3 DO-Ig; KIR3DL3 D0(Q26-A128)-Ig; not shown: human IgG1 Fc tag) QDKPFLSAWPGTVVSEGQHVTLQCRSRLGFNEFSLSKEDGMPVPELYNRIFRNSFLMGPVTPAHAGTYRCCSSHPHSPTGWSAPSNPVVIMVTGVHRKPSLLA |
